Test results reported in paper PMC4621449.

Target: SO_3165 antitoxin (MNT family), SO_3165-CHis (Shewanella oneidensis (MR-1)) (UniProt Q8ECH7)
Assay: EMSA
Details: 10 mM HEPES pH 7.3, 20 mM KCl, 1 mM MgCl2, 5% glycerol, NP-40, poly dI-dC, 25 C, 1 h; 0.05 pmol biotin-DNA; 6% gel in 0.5x TBE

SO_3165 antitoxin (MNT family), SO_3165-CHis (Shewanella oneidensis (MR-1)), sequence (Q8ECH7 whole entry): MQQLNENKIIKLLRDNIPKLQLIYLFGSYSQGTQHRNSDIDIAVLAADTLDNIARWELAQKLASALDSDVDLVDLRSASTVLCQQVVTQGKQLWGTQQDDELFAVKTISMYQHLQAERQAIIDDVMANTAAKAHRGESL

Q: How did the binding turn out when “TACGAGGCCAGAATTTAAAAGCGCAGCCGTCAGAAATGCAGCGATTAGAAGAAGTTGAAACTTCCGATGCAACCTCTTCAGACGCTGAACTACCAATACTTAAGCACACACATATAGAAAACCCGTCCCTACTATACCATAAACAATGTCAGGTACTGCGTATCGTTATAGAATGCACTAAAAAGTTCTAGATTAGAGCCACACAGTGGCGTCTTCAAAACCTGTGTCCGTCCTTTTGGCTCCGCCTTAATATGCTATATACTCATCCCGTATTCATCAAATCGTGCAATGGACCT (double strand) [PSO_3165-3166 promoter]” was run?
A: The binding was “binds”.
